The target in one data set is T1, D-val-leu-lys-pNA.
T1 chain: VLK

The target in data set [1] is T2, human recombinant IFN-γ, P01579.
T2 chain: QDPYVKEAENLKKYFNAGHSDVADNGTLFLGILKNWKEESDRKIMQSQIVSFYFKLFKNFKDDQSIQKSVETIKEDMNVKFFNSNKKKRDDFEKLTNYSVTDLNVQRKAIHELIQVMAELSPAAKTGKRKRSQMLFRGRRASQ

For data set [2], the target named is Protamine sulfate from salmon.
For data set [3], the target named is T3, mouse recombinant TNF-α, P06804.
T3 chain: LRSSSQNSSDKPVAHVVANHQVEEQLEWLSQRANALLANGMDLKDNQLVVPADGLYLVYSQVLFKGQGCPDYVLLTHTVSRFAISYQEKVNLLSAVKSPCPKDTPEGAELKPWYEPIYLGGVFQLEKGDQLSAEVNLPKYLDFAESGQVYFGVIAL

Data set [4] addresses T4, mouse recombinant IFN-γ, P01580.
T4 chain: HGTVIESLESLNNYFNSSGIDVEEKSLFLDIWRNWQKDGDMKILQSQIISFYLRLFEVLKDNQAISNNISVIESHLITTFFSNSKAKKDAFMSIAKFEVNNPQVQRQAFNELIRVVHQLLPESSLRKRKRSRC

In data set [5] the target is human recombinant TNF-α, P01375.
Sequence of human recombinant TNF-α, P01375 (P01375 77-233): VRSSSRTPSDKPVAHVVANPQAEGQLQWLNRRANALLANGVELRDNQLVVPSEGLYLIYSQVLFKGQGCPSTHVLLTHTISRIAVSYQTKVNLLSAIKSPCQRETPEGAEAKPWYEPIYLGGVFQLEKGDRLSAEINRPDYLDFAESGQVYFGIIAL

B1: Aspergillus oryzae 26 kDa protease (protein)
chain: HASADAWASSKAISSTSSPSSFKMRFISVSSLLLALAPALNAVPVEVAGSAQGLDVTLSQVGNTRIKAWKNTGSEDVTFVHLNFFKDAAPVQKVSLFRNATEVQFQGIKQRLITEGLSDDALTTLAPGATIEDEFDIASTSDLSEGGTITINSNGLVPITTDNKVTGYIPFTSNELSIDVDAAEAASVTQAVKILERRTKVTSCSGSRLSALQTALRNTVSLARAAATAAQSGSSSRFQEYFKTTSSSTRSTVAARLNAVANEAASTSSGSTTYYCSDVYGYCSSNVLAYTLPSYNIIANCDLYYSYLPALTSTCHAQDQATTTLHEFTHAPGVYSPGTDDLGYGYSAATALSASQALLNADTYALFANAVNLNC
In the case of B1, the Specific activity: Val-leu-lys-pNA (mOD/min/µg protein) (mOD/min/µg protein) with D-val-leu-lys-pNA was 2.1. Besides, the “cleavage by Western blot” value in data set [1] is recorded as “cleave human IFN-γ”. Moreover, the Specific activity: Salmon protamine (nmoles Leucine/30 min./µg protein) (nmoles Leucine/30 min./µg protein) in data set [2] turned out to be 679.

B2: Aspergillus oryzae alkaline protease (protein)
chain: GLTTQKSAPWGLGSISHKGQQSTDYIYDTSAGEGTYAYVVDSGVNVDHEEFEGRASKAYNAAGGQHVDSIGHGTHVSGTIAGKTYGIAKKASILSVKVFQGESSSTSVILDGFNWAANDIVSKKRTSKAAINMSLGGGYSKAFNDAVENAFEQGVLSVVAAGNENSDAGQTSPASAPDAITVAAIQKSNNRASFSNFGKVVDVFAPGQDILSAWIGSSSATNTISGTSMATPHIVGLSLYLAALENLDGPAAVTKRIKELATKDWKDVKGSPNLLAYNGNA
As for B2, the Specific activity: Val-leu-lys-pNA (mOD/min/µg protein) (mOD/min/µg protein) in the data set with D-val-leu-lys-pNA turned out to be 117. Further, the “cleavage by Western blot” value in data set [1] is “the protease did not cleave human IFN-γ”. The “cleavage by Western blotting” value in data set [3] and in data set [4] was “evidenced the same substrate specificity” each time. In addition, the Specific activity: Salmon protamine (nmoles Leucine/30 min./µg protein) (nmoles Leucine/30 min./µg protein) in data set [2] was 951. Moreover, the “proteolysis by Western blotting” value in data set [5] is “produced a similar pattern of cleavage”.

B3: Aspergillus oryzae Deuterolysin (Neutral Protease II) (protein)
chain: TEVTDCKGDAESSLTTALSNAAKLANQAAEAAESGDESKFEEYFKTTDQQTRTTVAERLRAVAKEAGSTSGGSTTYHCNDPYGYCEPNVLAYTLPSKNEIANCDIYYSELPPLAQKCHAQDQATTTLHEFTHAPGVYQPGTEDLGYGYDAATQLSAQDALNNADSYALYANAIELKC
In turn, B3 displayed a Specific activity: Val-leu-lys-pNA (mOD/min/µg protein) (mOD/min/µg protein) with D-val-leu-lys-pNA of 2.3. For the same protein, the “cleavage by Western blot” value in data set [1] is reported as “cleave human IFN-γ”. For the same protein, in data set [2], the Specific activity: Salmon protamine (nmoles Leucine/30 min./µg protein) (nmoles Leucine/30 min./µg protein) stood at 677. Further, the “proteolysis by Western blotting” value in data set [5] is recorded as “deuterolysin was without significant effect”.

(Values after patent publication US20080081035.)
